Experimental data published in the supplement of paper PMC9233669.
This sample holds only a part of the variants without activity.

Test system: biotinyl-Phe-oxazolone
Assay: self-aminoacylation, catalytic enhancement (BFO) (fold over background); higher = more active; k-Seq, kA / k0A0; sequences stand for … in GGGAAUGGAUCCACAUCUACGAAUUC…UUCACUGCAGACUUGACGAAGCUG
Outline: (§1)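 The uncatalyzed rate is the low-activity peak of a bimodal Gaussian fit, and catalytic enhancement is median kA divided by it. The kA values came from pseudo-first-order fits, with 1000 bootstraps, of per-sequence fraction reacted measured by streptavidin capture, triplicate qPCR and Illumina sequencing. Mutagenized RNA pools with a 21-nt variable region (0.43 μM) were reacted with each biotinyl-aminoacyl-oxazolone at 2–1250 μM in 50 μL HEPES/NaCl/KCl/MgCl2/CaCl2 buffer with 5% acetonitrile, pH 6.9–7.0, for 90 minutes at room temperature.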

| Sequence | self-aminoacylation |
| --- | --- |
| AAAUUUGCUAAUAGUCGAAAG [Fam3.1 aminoacylation ribozyme variant] | 4.94 |
| AAAUUUGCUAAUAGUCGCAAG [Fam3.1 aminoacylation ribozyme variant] | 4 |
| AAAUUUGCUAAUAGUCUCAAG [Fam3.1 aminoacylation ribozyme variant] | 2.03 |
| AAGAUUGCUAAUAGUCACAAG [Fam3.1 aminoacylation ribozyme variant] | 2.63 |
| AAGAUUGCUAAUAGUCGUAAG [Fam3.1 aminoacylation ribozyme variant] | 9.9 |
| AAGAUUGCUUAUAGUCGCAAG [Fam3.1 aminoacylation ribozyme variant] | 2.44 |
| AAGGUAGCUAAUAGUCGCAAG [Fam3.1 aminoacylation ribozyme variant] | 3.35 |
| AAGGUUACUAAUAGUCGCAAG [Fam3.1 aminoacylation ribozyme variant] | 2.19 |
| AAGGUUGCUAAUAGUCGCCAG [Fam3.1 aminoacylation ribozyme variant] | 2.54 |
| AAGGUUGCUUAUAGUCGCAAG [Fam3.1 aminoacylation ribozyme variant] | 2.7 |
| AAGUAUACUAAUAGUCGCAAG [Fam3.1 aminoacylation ribozyme variant] | 2.34 |
| AAGUCUGCUAAUAGUCGCAAU [Fam3.1 aminoacylation ribozyme variant] | 6.06 |
| AAGUUAGCUAAUAGUCACAAG [Fam3.1 aminoacylation ribozyme variant] | 3.83 |
| AAGUUAGCUAAUAGUCGCAAU [Fam3.1 aminoacylation ribozyme variant] | 2.2 |
| AAGUUAGCUAAUAGUCGCACG [Fam3.1 aminoacylation ribozyme variant] | 2.06 |
| AAGUUCGCUAAUAGUCGAAAG [Fam3.1 aminoacylation ribozyme variant] | 4.18 |
| AAGUUGGCUAAUAGUCGCCAG [Fam3.1 aminoacylation ribozyme variant] | 2.1 |
| AAGUUGGCUAAUAGUCGCUAG [Fam3.1 aminoacylation ribozyme variant] | 2.22 |
| AAGUUUACGAAUAGUCGCAAG [Fam3.1 aminoacylation ribozyme variant] | 2.82 |
| AAGUUUACUAAUAGUUGCAAG [Fam3.1 aminoacylation ribozyme variant] | 2.19 |
| AAGUUUGCGGAUAGUCGCAAG [Fam3.1 aminoacylation ribozyme variant] | 2.73 |
| AAGUUUGCUAAUAAUCGUAAG [Fam3.1 aminoacylation ribozyme variant] | 3.54 |
| AAGUUUGCUAAUAGUCGCAAA [Fam3.1 aminoacylation ribozyme variant] | 2.2 |

| Sequence | self-aminoacylation |
| --- | --- |
| AAGUUUGCUAAUAGUCGCCUG [Fam3.1 aminoacylation ribozyme variant] | 7.8 |
| AAGUUUGCUAAUUGUCGCAAU [Fam3.1 aminoacylation ribozyme variant] | 6.81 |
| AAGUUUGUUAAAAGUCGCAAG [Fam3.1 aminoacylation ribozyme variant] | 2.4 |
| AAGUUUUCUAAUAGUCUCAAG [Fam3.1 aminoacylation ribozyme variant] | 2.15 |
| AAGUUUUCUAGUAGUCGCAAG [Fam3.1 aminoacylation ribozyme variant] | 2.53 |
| AAUUUUGCUAAUAGUCACAAG [Fam3.1 aminoacylation ribozyme variant] | 3.77 |
| AUAACCCUGGUCGUCGAGUGA [Fam2.1 aminoacylation ribozyme variant] | 2.78 |
| AUACUUCAAACAAUCGGUCUA [Fam1A.1 aminoacylation ribozyme variant] | 3.14 |
| AUACUUCAAACAAUCUGUCUG [Fam1A.1 aminoacylation ribozyme variant] | 2.2 |
| AUCUUUGCUAAUAGUCGCAAG [Fam3.1 aminoacylation ribozyme variant] | 2.44 |
| AUGUUUGCUAAUAGUCGCAAU [Fam3.1 aminoacylation ribozyme variant] | 2.83 |
| AUGUUUGCUACUAGUCGCAAG [Fam3.1 aminoacylation ribozyme variant] | 2.12 |
| AUGUUUGCUCAUAGUCGCAAG [Fam3.1 aminoacylation ribozyme variant] | 2.41 |
| AUUACCCUGGUCAGCGAGUGC [Fam2.1 aminoacylation ribozyme variant] | 8.87 |
| AUUCACCUACGUCAUCGGGUU [Fam2.2 aminoacylation ribozyme variant] | 2.52 |
| AUUCACCUAGGUAAUCGAGUG [Fam2.2 aminoacylation ribozyme variant] | 2.87 |
| AUUCACCUAGGUCACCUGGUG [Fam2.2 aminoacylation ribozyme variant] | 8.5 |
| AUUCACCUAGGUCGUCGGGUC [Fam2.2 aminoacylation ribozyme variant] | 5.09 |
| AUUCACCUAGGUCUUCGUGUG [Fam2.2 aminoacylation ribozyme variant] | 5.39 |
| AUUCGCCUAGGUCAUCGGUUG [Fam2.2 aminoacylation ribozyme variant] | 4.32 |
| AUUCUCCUAGGUCAUCGUGUG [Fam2.2 aminoacylation ribozyme variant] | 3.73 |
| AUUGACCUAGGUCAUCGGGUC [Fam2.2 aminoacylation ribozyme variant] | 3.83 |
| CAACUUCACACAAUCGGUCUG [Fam1A.1 aminoacylation ribozyme variant] | 3.02 |

| Sequence | self-aminoacylation |
| --- | --- |
| CCACACAUCAAUCAAUCGGUC [Fam1B.1 aminoacylation ribozyme variant] | 2.22 |
| CCACACUUCAAGCAAUCGAUC [Fam1B.1 aminoacylation ribozyme variant] | 2.02 |
| CCACUGCAAACAAUCGGUCUG [Fam1A.1 aminoacylation ribozyme variant] | 4.13 |
| CGACUGCAAACAAUCGGUCUG [Fam1A.1 aminoacylation ribozyme variant] | 6.2 |
| CGACUUCAAACAAUCGAUCUG [Fam1A.1 aminoacylation ribozyme variant] | 3.21 |
| CUACUCCAAACAAUCGGUUUG [Fam1A.1 aminoacylation ribozyme variant] | 2.1 |
| CUACUGCAAACAAGCGGUCUG [Fam1A.1 aminoacylation ribozyme variant] | 5.58 |
| CUACUGCAAACAAUCGGUCCG [Fam1A.1 aminoacylation ribozyme variant] | 6.96 |
| CUACUGCAAACAAUCGGUGUG [Fam1A.1 aminoacylation ribozyme variant] | 3.44 |
| CUACUUCAAACAAUCGCUCUG [Fam1A.1 aminoacylation ribozyme variant] | 2.58 |
| CUACUUCAAACAAUCGGCCCG [Fam1A.1 aminoacylation ribozyme variant] | 3.03 |
| CUACUUCAAACAAUCGGCCUU [Fam1A.1 aminoacylation ribozyme variant] | 2.48 |
| CUAUUUCAACCAAUCGGUCUG [Fam1A.1 aminoacylation ribozyme variant] | 2.27 |
| CUCCAUCAAACAAUCGGUCUG [Fam1A.1 aminoacylation ribozyme variant] | 2.14 |
| CUCCUUCAAACACUCGGUCUG [Fam1A.1 aminoacylation ribozyme variant] | 6.18 |
| GAGUUUGCUAAUAGCCGCAAG [Fam3.1 aminoacylation ribozyme variant] | 4.21 |
| GAGUUUGCUAAUAGUCGCACG [Fam3.1 aminoacylation ribozyme variant] | 3 |
| GAGUUUGCUAAUCGUCGCAAG [Fam3.1 aminoacylation ribozyme variant] | 2.55 |
| GAGUUUGUUAAUAGUCGCAAG [Fam3.1 aminoacylation ribozyme variant] | 2.36 |
| GUACAUCAAACAAUCGGUCUG [Fam1A.1 aminoacylation ribozyme variant] | 2 |
| GUACCUCAAACAAUCGGUCUG [Fam1A.1 aminoacylation ribozyme variant] | 2.42 |
| UCGUUUGCUAAUAGUCGCAAG [Fam3.1 aminoacylation ribozyme variant] | 4.06 |

Test system: biotinyl-Trp-oxazolone
Assay: self-aminoacylation, catalytic enhancement (BWO) (fold over background); higher = more active; k-Seq, kA / k0A0; sequences stand for … in GGGAAUGGAUCCACAUCUACGAAUUC…UUCACUGCAGACUUGACGAAGCUG
Outline: as §1

| Sequence | self-aminoacylation |
| --- | --- |
| AAAUUUGCUAAUAGUCGCAAG [Fam3.1 aminoacylation ribozyme variant] | 2.13 |
| AAGAUUGAUAAUAGUCGCAAG [Fam3.1 aminoacylation ribozyme variant] | 2.33 |
| AAGAUUGCUAAUAGUCGUAAG [Fam3.1 aminoacylation ribozyme variant] | 2.41 |
| AAGAUUGCUUAUAGUCGCAAG [Fam3.1 aminoacylation ribozyme variant] | 2.35 |
| AUGACCCUGGUCAUCGAGUCA [Fam2.1 aminoacylation ribozyme variant] | 2.12 |
| AUUACCCUGGUCAUCCAGUAA [Fam2.1 aminoacylation ribozyme variant] | 2.35 |
| AUUACCCUGGUCAUGGAGUGG [Fam2.1 aminoacylation ribozyme variant] | 2.54 |
| AUUACCGUGGUCAUCGAGCGA [Fam2.1 aminoacylation ribozyme variant] | 2.2 |
| CCGCACUUCAAGCAAUCGGUA [Fam1B.1 aminoacylation ribozyme variant] | 2.16 |
| CUUCACCUAGGUCAUCGGGAG [Fam2.2 aminoacylation ribozyme variant] | 2.1 |
| GUUCACCUAGGUCAUCGGGAG [Fam2.2 aminoacylation ribozyme variant] | 2.13 |
